Results taken from the supplement of paper PMC12042874.
± gives the uncertainty stated by the source.

test: amyloid nucleation score (Sup35N fusion, yeast selection) (log enrichment); library NNK3; higher = more nucleation; inactive = no reads after selection
Outline: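 The nucleation score is a DiMSum log enrichment of output over input reads, centred on the mode score of non-aggregating sequences. Sequences under 100 input reads were excluded, and reads came from Illumina sequencing of plasmid inserts. Psi-negative yeast expressing Sup35N fused to peptides of 20 random codons were induced with 100 μM copper sulfate for 24 hours and grown 7 days at 30°C on medium lacking adenine and uracil. Random libraries had three technical output replicates.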

Substance	amyloid nucleation score
FDSQGEPVPKPSAMMRGRMC	inactive
FDVIS	inactive
FDVRCLWYCQK	1.33 ± 0.17
FECDKENSSLDSPFMLAFKD	inactive
FECMRELPRAPTKPGSWRHA	inactive
FEDCSTLH	-0.482 ± 0.84
FERDMVQ	inactive
FERSMHFENRDSDPCYIVRF	inactive
FEWFQCIYA	inactive
FFAECCRGNKCYMRSKDDQS	inactive
FFARDVRSN	inactive
FFCKRFYSKFPDQWLAHSVE	inactive
FFCSSTPKSWMCKQTL	inactive
FFFTEFFELHIWTKSLPFTS	inactive
FFFVSSIRIICRV	inactive
FFFYLPICTLGILYLFDCKA	0.386 ± 0.2
FFGFPLV	inactive
FFIDFVGTRCFN	inactive
FFLTHGCTCEDALKFGWVCY	inactive
FFNIYLVRNSYQKTCAGLTR	2.05 ± 0.091
FFNYIIMEIHFFALLSHRKH	inactive
FFPDGDQTYMA	inactive
FFQESYLGMDLYELSTYNNV	inactive

Substance	amyloid nucleation score
FFRIVSLCSSPGNGEDKDRL	inactive
FFSCFCLLMRY	inactive
FFSDRLTSTGSMES	inactive
FFSSGVVRQAYVLVAEDNVS	inactive
FFSTQAFLDLAHTRFVNPLG	inactive
FFTMSKI	inactive
FFVHRCIYVNGWKGQTHSSQ	inactive
FFVLLLFVRVYKIALNFMMG	inactive
FFVMCARGHTMRSYTFFVK	inactive
FFYSAFENMMMALLKMRKFH	inactive
FGEVNIAYRMIMRMSGQGGK	0.998 ± 0.17
FGEYKMISVEYLVLEIVRYM	inactive
FGFCWLFNLCYLGNVVYAVM	inactive
FGFYSCTLGG	inactive
FGGAYFVTPGAYFVWYSFLG	0.222 ± 0.31
FGMKTYRLQIGYNITVCHSI	-0.603 ± 0.58
FGNINLCMCFWKMEIECLTR	inactive
FGTNVLYAFM	inactive
FGVSFKYFCVQEQLAKDSVA	inactive
FGVVWGSKLFCRFGSVTIYP	inactive
FGYPMPIRNVSVVPVLFYKG	inactive
FHEFSTSFWSFEASLLTARL	inactive
FHFFYYTLFNCHHGLFTSFF	inactive

Substance	amyloid nucleation score
FHFYGFCLYAYFSAIEDQNC	2.06 ± 0.071
FHMFYRFSGDNGPKKFH	0.607 ± 0.26
FHMIECGVYAKHLGHCTRYI	-0.079 ± 0.33
FHNVGLI	1.77 ± 0.093
FHPFMCSYGSGWDGRLVHCG	inactive
FHTFSLTSINMVLLSFVVRF	inactive
FHTLLLCSDVSSARWFADWF	inactive
FHTWISGLPEVHWGVLEVRW	inactive
FHYGLSWLSSTKGSYVFYIG	inactive
FIALIYVIIPDIEGSVYVSN	inactive
FIGGVVTVTVYNNTVESGLK	1.65 ± 0.13
FIGVCNLVWMELPLDAMRFF	1.36 ± 0.11
FIILKYGLYM	0.507 ± 0.14
FIKHVRIKFTWSVSREF	inactive
FIQWQSESVYIAYSNFTSSM	inactive
FIRGVSYDFIDRSIILFLEV	inactive
FIRLFEYMRGLPLLVKNDSV	0.234 ± 0.72
FIRLYDKIRWYNDGNWVWHV	inactive
FIRMVGRLKKWRVS	inactive
FIRTGELLFLVEWPLVCYTK	inactive
FISRSGAVGRRS	inactive
FIVVDMDSYRAVDGARVFVE	inactive
FIVYLSCPWVRRFIVVMEFM	inactive

Substance	amyloid nucleation score
FIYDEQSSDSVV	inactive
FKAPWLSGP	inactive
FKDCED	-0.328 ± 0.6
FKGLVVMKGLLNMIGGGACH	0.27 ± 0.4
FKMPTIRLVLK	inactive
FKSAFWLIM	inactive
FKYLWADREVNVGQKHSVIG	-0.174 ± 0.7
FLACSDVVYSDN	inactive
FLAGDWSKGFNKYYTYYISK	inactive
FLCMSLATRMLTFRLFPTNL	inactive
FLDPYSHRLSAKALYM	inactive
FLDVALLKSMNCSASREVGV	inactive
FLGAVRLYSPAHTY	inactive
FLIDNCYWYPHCAPIVAPWL	inactive
FLIWGKQPWTRKLLGTIVPV	inactive
FLLGPSLTPNSMG	inactive
FLLMC	inactive
FLLMLFVSGVRLFDYRRFWH	inactive
FLLVMYT	0.167 ± 0.25
FLLVNLTVITRACEKLPMRP	-0.277 ± 1.1
FLMDNMVSGIVFFTSSVIRG	inactive
FLNLHTVCC	inactive
FLNRSTAIWKYRLIAQRVGD	inactive

Substance	amyloid nucleation score
FLPWDFKASKKEPYSKYMNL	inactive
FLRLCLVVRLRCVVISMGNY	inactive
FLRNIFDGRTWTFKDSNMSH	inactive
FLRSSVCA	inactive
FLSFSFYLVYRRKSVRFQ	inactive
FLSYTPRATGYHFFRLSIFC	inactive
FLTFRPSLSTRHLFLMESHT	inactive
FLTLSSFHRPMVE	inactive
FLVWDFRSERKRKKI	inactive
FLVYLRR	1.17 ± 0.11
FLWVAANLDFVYDEREHIRG	inactive
FLYAFLPWRCVKNFFCSKVL	inactive
FLYYLLMLVRVRCFEQVVIV	inactive
FMEHLLYE	inactive
FMIFDWVTYIKVTVKCWW	inactive
FMLCLMATLRKGLDANLWVT	inactive
FMPANAFWTKFCSARNRLYI	-0.135 ± 0.57
FMRDD	inactive
FMRGTVLKTRNYRFRQAHEE	inactive
FMTFPRASADRDFFSRVLHL	inactive
FMTIIKRWDVWNFCRSSGAV	inactive
FMVWYREMDLVLVAQREEYK	inactive
FMYRTDRYHVRGVITWRLSM	inactive

Substance	amyloid nucleation score
FMYSGAVSDVRLNSSGDSLG	-0.516 ± 0.96
FNARLFISLLIKDRK	inactive
FNATCVVGHQVSVCNPWDAH	inactive
FNFLVWAQ	inactive
FNGICRWTCYSCS	2.09 ± 0.08
FNGMACVFRISFVALRLQGG	-0.892 ± 1.7
FNISIRVDIVISICNNVVFN	0.596 ± 0.19
FNKLEVRNRQEWLSGRFWDH	-0.091 ± 0.36
FNKVRWSRVTGTFWKVLIRV	inactive
FNMFVKNN	inactive
FNNFSYCHTDARVWVMATVM	inactive
FNSYKGNVSFAGW	-0.155 ± 1.4
FNTRQSNLKDDMVSFHDSDL	inactive
FPFLSSSSDSSEMFILKLFD	inactive
FPICWLRVVDLALFKWMYNF	inactive
FPIWLLDCKEDCVLSDVAAS	inactive
FPRVTVPLVFSSIQESTSSE	inactive
FPSIFCPCFLTIYMFGWIVS	inactive
FPVARAIATMGWHIGALFLN	inactive
FPWYAIFSHSMLCVDIQDF	0.958 ± 0.2
FPYSKIRCLCDGRNDRLGGL	-0.043 ± 0.67
FQIKT	0.041 ± 0.81
FQKQLASRCTSWSWTRWLVQ	inactive

Substance	amyloid nucleation score
FQSHLNIVIVYIRLNYTVLL	-0.394 ± 0.63
FRCFYGTRSWRKECGESAFL	inactive
FRDVPGLLCR	inactive
FRGFIAVDAVGMVTNYIIKY	1.89 ± 0.062
FRIIQVVRYDMMGTRLDMYQ	0.938 ± 0.19
FRLRYRYFCRGRGCMDDLEY	-0.288 ± 0.8
FRLYFYYYSNLFRHFCYNKS	inactive
FRNCRSWATCTAKARLHCPS	0.812 ± 0.16
FRSNGSIWVRGSETFTIAP	inactive
FRSTCTFHCMERSRLRISPK	inactive
FRVAAMAISGTISCQYFQGL	0.739 ± 0.17
FRWHLCRFCWKRIFASTMLA	inactive
FRWNNCGSMVRISTPSYSFL	inactive
FRYEILTI	0.912 ± 0.12
FSALQWGSRTYIFVYSGNMS	0.658 ± 0.24
FSAMTPSGRWHDRSRSDVIN	inactive
FSCDIMRPTKLGYSFDGLLL	inactive
FSCIMVRCYFR	inactive
FSCPDLGRGYVIS	inactive
FSCSYTMGQCEASCVWQLKY	0.36 ± 0.35
